Ends that are not written are not given here.
T1: NPNA4 peptide (Plasmodium falciparum (isolate 3D7)., not fully specified)
T1 construct: source: synthetic peptide (InnoPep Inc)
T1 chain: NPNANPNANPNANPNA

T2: NPNA8 peptide (Plasmodium falciparum (isolate 3D7)., not fully specified)
T2 construct: source: synthetic peptide (InnoPep Inc)
T2 chain: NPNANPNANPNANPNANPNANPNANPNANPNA

T3: NPNA8 peptide (Plasmodium falciparum (isolate 3D7)., not fully specified)
T3 construct: source: synthetic peptide (InnoPep Inc, purity >=97%)
T3 chain: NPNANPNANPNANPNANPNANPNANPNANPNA

T4: NPNA4 peptide (Plasmodium falciparum (isolate 3D7)., not fully specified)
T4 construct: source: synthetic peptide (InnoPep Inc, purity >=97%)
T4 chain: NPNANPNANPNANPNA

B1: 364 Fab (Fab, V domains shown)
VH: QVQLVESGGGVVQPGGSLRLSCAASGFTFSGYGMHWVRQVPGKGLEWVAIIWFDGSQKYYADSVQGRFTISRDNSKKTLFLRMNSLRAEDTAVYYCAKVHDDEPTQDYWGQGTLVTVSS
VL: DIQMTQSPSTLSASVGDRVTITCRASQGISTSLAWYQQKPGKAPKLLIYKASSLESGVPSRFSGSGSGTEFTLTITSLQPEDFATYYCQQYKRYWTFGQGTKVEIK
notes: also called mAb 364; source: ExpiCHO cells, purified (mAb Select PrismA or Capture Select, SEC)
B2: 364 Fab (Fab, V domains shown)
VH: QVQLVESGGGVVQPGGSLRLSCAASGFTFSGYGMHWVRQVPGKGLEWVAIIWFDGSQKYYADSVQGRFTISRDNSKKTLFLRMNSLRAEDTAVYYCAKVHDDEPTQDYWGQGTLVTVSS
VL: DIQMTQSPSTLSASVGDRVTITCRASQGISTSLAWYQQKPGKAPKLLIYKASSLESGVPSRFSGSGSGTEFTLTITSLQPEDFATYYCQQYKRYWTFGQGTKVEIK
notes: source: ExpiCHO cells, purified (mAb Select PrismA or Capture Select, SEC)
B3: 356 Fab (Fab, V domains shown)
VH: QVQLVESGGGVVQPGRSLRLSCAASGFTFRNFGMHWVRQTPGKGLEWVAVIWHDGSNKFYADSVEGRFTISRDNSKNMIYLQMNSLRVEDTAIYYCARDSLFYDHDNSGYYGYWGQGTLVTVSS
VL: QIVMTQSPATVSVSPGERATLSCRASRSVTSKLAWYQQKPGQAPRLLIYGASTRATGIPARFSGSGSGTEFTLTISSLQSEDFAVYFCQQYNNGFTFGPGTKVDFK
notes: also called mAb 356; source: ExpiCHO cells, purified (mAb Select PrismA or Capture Select, SEC)
B4: 356R Fab (Fab, V domains shown)
VH: QVQLVESGGGVVQPGRSLRLSCAASGFTFSSYGMHWVRQTPGKGLEWVAVIWHDGSNKFYADSVKGRFTISRDNSKNMIYLQMNSLRVEDTAIYYCARDSLFYDHDNSGYYGYWGQGTLVTVSS
VL: EIVMTQSPATVSVSPGERATLSCRASQSVTSKLAWYQQKPGQAPRLLIYGASTRATGIPARFSGSGSGTEFTLTISSLQSEDFAVYFCQQYNNGFTFGPGTKVDFK
notes: also called germline-reverted 356; source: ExpiCHO cells, purified (mAb Select PrismA or Capture Select, SEC)
B5: 356R Fab (Fab, V domains shown)
VH: QVQLVESGGGVVQPGRSLRLSCAASGFTFSSYGMHWVRQTPGKGLEWVAVIWHDGSNKFYADSVKGRFTISRDNSKNMIYLQMNSLRVEDTAIYYCARDSLFYDHDNSGYYGYWGQGTLVTVSS
VL: EIVMTQSPATVSVSPGERATLSCRASQSVTSKLAWYQQKPGQAPRLLIYGASTRATGIPARFSGSGSGTEFTLTISSLQSEDFAVYFCQQYNNGFTFGPGTKVDFK
notes: also called Fab356R; germline-reverted 356; source: ExpiCHO cells, purified (mAb Select PrismA or Capture Select, SEC)
B6: 356 Fab (Fab, V domains shown)
VH: QVQLVESGGGVVQPGRSLRLSCAASGFTFRNFGMHWVRQTPGKGLEWVAVIWHDGSNKFYADSVEGRFTISRDNSKNMIYLQMNSLRVEDTAIYYCARDSLFYDHDNSGYYGYWGQGTLVTVSS
VL: QIVMTQSPATVSVSPGERATLSCRASRSVTSKLAWYQQKPGQAPRLLIYGASTRATGIPARFSGSGSGTEFTLTISSLQSEDFAVYFCQQYNNGFTFGPGTKVDFK
notes: as for B2
B7: 239 Fab (Fab, V domains shown)
VH: QVQLVESGGGVVQPGRSLRLSCAASRLTFRNFGMHWVRQTPGKGLEWVAVIWHDGSNKFYADSVEGRFTISRDNSKNTLYLQMNSLRDEDTAIYYCAKDWGGASDRVFDYWGRGTLVIVSS
VL: DIQMTQSPSTLSASVGDRVTITCRASQSVSTSLAWYQQKPGKAPNLLIYQASTLYRGVPSRFSGSGSGTEFTLTIGSLQPDDFATYYCQHYNSYSRITFGQGTRLEIK
notes: also called mAb 239; source: ExpiCHO cells, purified (mAb Select PrismA or Capture Select, SEC)
B8: 239 Fab (Fab, V domains shown)
VH: QVQLVESGGGVVQPGRSLRLSCAASRLTFRNFGMHWVRQTPGKGLEWVAVIWHDGSNKFYADSVEGRFTISRDNSKNTLYLQMNSLRDEDTAIYYCAKDWGGASDRVFDYWGRGTLVIVSS
VL: DIQMTQSPSTLSASVGDRVTITCRASQSVSTSLAWYQQKPGKAPNLLIYQASTLYRGVPSRFSGSGSGTEFTLTIGSLQPDDFATYYCQHYNSYSRITFGQGTRLEIK
notes: as for B2
B9: 239R Fab (Fab, V domains shown)
VH: QVQLVESGGGVVQPGRSLRLSCAASRLTFSSYGMHWVRQTPGKGLEWVAVIWHDGSNKFYADSVKGRFTISRDNSKNTLYLQMNSLRDEDTAIYYCAKDWGGASDRVFDYWGRGTLVIVSS
VL: DIQMTQSPSTLSASVGDRVTITCRASQSVSTSLAWYQQKPGKAPNLLIYQASTLYTGVPSRFSGSGSGTEFTLTIGSLQPDDFATYYCQHYNSYSRITFGQGTRLEIK
notes: also called germline-reverted 239; source: ExpiCHO cells, purified (mAb Select PrismA or Capture Select, SEC)

Tests used:
Test in all cases: BLI
Conditions in all cases: both partners purified
[1] = molecular target: T1, NPNA4 peptide
[2] = molecular target: T2, NPNA8 peptide
[3] = molecular target: T3, NPNA8 peptide
[4] = molecular target: T4, NPNA4 peptide

Binder	Kd [1]	koff [1]	kon [1]	Kd [2]	koff [2]	kon [2]	Kd [3]	Kd [4]
B1	260 nM	0.0027 s⁻¹	43000 M⁻¹ s⁻¹	4.9 nM	0.00027 s⁻¹	65000 M⁻¹ s⁻¹	–	–
B2	–	–	–	–	–	–	4.88 nM	260 nM
B3	123 nM	0.013 s⁻¹	80000 M⁻¹ s⁻¹	6.4 nM	0.00056 s⁻¹	87000 M⁻¹ s⁻¹	–	–
B4	79 nM	0.03 s⁻¹	560000 M⁻¹ s⁻¹	124 nM	0.017 s⁻¹	79000 M⁻¹ s⁻¹	–	–
B5	–	–	–	–	–	–	124 nM	65 nM
B6	–	–	–	–	–	–	6.35 nM	123 nM
B7	44.7 nM	0.0063 s⁻¹	110000 M⁻¹ s⁻¹	7.2 nM	0.00056 s⁻¹	83000 M⁻¹ s⁻¹	–	–
B8	–	–	–	–	–	–	7.22 nM	44.7 nM
B9	165 nM	0.033 s⁻¹	410000 M⁻¹ s⁻¹	205 nM	0.022 s⁻¹	120000 M⁻¹ s⁻¹	–	–

From article PMC10382551, “Affinity-matured homotypic interactions induce spectrum of PfCSP structures that influence protection from malaria infection” (Nature Communications, 2023)
